Measured values reported in the nanobody polyreactivity screen of Harvey et al. (2022).

Assay: yeast display, Sf9 membrane polyspecificity reagent, FACS + sequencing; frameworks hold sequencing errors
Summary of the method: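 Genes from sorted yeast were amplified by colony PCR, read by MiSeq 2 × 250 sequencing and filtered on CDR length. These cells carried a synthetic nanobody library in Saccharomyces cerevisiae BJ5465 and were sorted by FACS into low and high (top ~1%) gates on anti-HA and streptavidin fluorescence. Polyreactivity is labelled according to the gate of origin.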

Row | Sequence | polyreactivity (PSR sort gate)
1 | QVQLVESGGGLVQAGGSLRLSCAASVSTYIYYAMGWYRQAPGKERELVAAISQSGGSTYYADSVKGRFTISRDNAKNTVYLQMNSLKPEDTAVYYCAARLRHLGLGRYGFDYWGQGTQVTVSS | high polyreactivity
2 | QVQLVESGGGLVQAGGSLRLSCAASVYIFWINAMGWYRQAPGKDRELVAAIRYSTGRTYYADSVKGRFTISRDNAKNTVYLQMNSLKPEDTAVYYCNARSWYIRGSQEYYYWGQGTQVTVSS | high polyreactivity
3 | QVQLVESGGGLVQAGGSLRLSCAATGFIFFYYAMGWYRQAPGKERELFAVIDRSGGTTYYADSVKGRFTISRDNAKNTVYLQMNSLKPEDTAVYYCNADDFTYPSGWGFIYDYWGQGTQVTVSS | low polyreactivity
4 | QVQLVESGGGLVQAGGSLRLSCAATGFTFGFNDMGWYRQAPGKERELVAAISWSGGRTYYADSVKGRFTISRDNAKNTVYLQMNSLKPEDTAVYDCAAEGVGRADRNKEYDYWGQGTQVTVSS | high polyreactivity
5 | QVQLVESGGGLVQAGGSLRLSCAATGFTFNRYTMGWYRQAPGKERELVASISVRGSRTYSADSVKGRFTISRDNAKNTVYLQMNSLKPEDTAVYYCNAKTYVYYRLRSYYYWGQGTQVTVSS | high polyreactivity
6 | QVQLVESGGGLVQAGGSLRLSCAATGGIFNVYVMGWYRHAPGKESEFVAAITWRGGSTYYADSVKGRFTISRDNAKNTVYLQMNSLKPEDTAVYYCNADAPFQSSSDGYQVEYWGQGTQVTVSS | low polyreactivity
7 | QVQLVESGGGLVQAGGSLRLSCAATGGTFEFYTMGWYRQAPGKERELVAVINASGDSTYYADSVKGRFTISRDNAKNTVYLQMNSLKPEDTAVYYCAADNQGYTTKWRREYYYWGQGTQVTVSS | low polyreactivity
8 | QVQLVESGGGLVQAGGSLRLSCAATGIIFGDNAMGWYRQAPGKERELVAAFTIGGTSTYNADSVKGRFTISRDNAKNTVYLQMNSQKPEDTAVYYCAKTILYDCDYWGQGTQVTVSS | low polyreactivity
9 | QVQLVESGGGLVQAGGSLRLSCAATGLNFAYNAMGWYRQAPGKERELVAAITGGGDGTYYADSVKGRFTISRDNAKNTVYLQMNSLKPEDTAVYYCADDYKYVGSEYGYWGQGTQVTVSS | low polyreactivity
10 | QVQLVESGGGLVQAGGSLRLSCAATGLTFPQYAMGWYRQAPGKEREIVAAIRSSDDRTYYADSVKGRFTISRDNAKNTVYLQLNSLKPEDTAVYYCAARVGKIGYKPRMDYWGQGTQVSVSS | high polyreactivity
11 | QVQLVESGGGLVQAGGSLRLSCAATGNIFADYAKGWYRQAPGKERELVAAITWSGDDTYYADSVKGRFTISRDNAKNTVYLQMNSLKPEDTAVYYCAAGYWRTSVDFDYWGQCTQVTVSS | low polyreactivity
12 | QVQLVESGGGLVQAGGSLRLSCAATGNIFRYNAMGWYRQAPGKERELFAAISSVGTTNYADSVKGRFTISRDNEKNTVYLQMNSLKPEDTAVYYVAAVAYQGGYLNDNWGQGTQVTLSS | low polyreactivity
13 | QVQLVESGGGLVQAGGSLRLSCAATGRIFGSNAMGWYRQAPGKEREVVAAITRGGSTNYADSVKGRFTISRDNAKNTVYLQMNSLKPEDTAVYYCAVRWYRKYNFWGQGTQVTVSS | high polyreactivity
14 | QVQLVESGGGLVQAGGSLRLSCAATGRIFQRNAMGWSRQEPGKEREFVAAISSRGGTTYYADSVKGRFTISRDNAKNTVYLQMNSLKQEDTAVYYCAAGYVHLYYFHEYYWGQGTQVTVSS | high polyreactivity
15 | QVQLVESGGGLVQAGGSLRLSCAATGRIFYGYAMGWYRQAPVKERELVAAITRGVSTYYADSVKGRFTISRDNAKNTVYLQMNSLKPEDTAVYYCAIERRVRMDSWGQGTQVTVSS | low polyreactivity
16 | QVQLVESGGGLVQAGGSLRLSCAATGRIYVTNAMGWYRQAPGKERELVAAITESGGSTYYADTVKGRFTISRDNAKNTVYLQMNSLKPEDTAVYYCAADYLNGEEDYWGQGTQVTVSS | low polyreactivity
17 | QVQLVESGGGLVQAGGSLRLSCAATGRNFVYNAMGWYRQAPGKERELVAAITWGGGSTYYADSVKGRFTISRDYAKNTVYLQMNSLKPEDTAVYYCAARGGSYPQDHSPYYEYDYWGQGTQVTVSS | low polyreactivity
18 | QVQLVESGGGLVQAGGSLRLSCAATGRTFRYYAMGWYRQAPGKERELVAAISSGGSTNYADSVKGRFTISRDNAKNTVYLQMNSLKPEDTAVYYCAALWSGNKFNYWGQGTQVTVSS | low polyreactivity
19 | QVQLVESGGGLVQAGGSLRLSCAATGRTFSEYVMGWYRQAPGKERELVAAISDRGTRTYYSDSVKGRFTISRDNAKNNVYLPMNSLKPEDTAVYYCYAGLTYNHDPYDYWGQGTQVTVSS | high polyreactivity
20 | QVQLVESGGGLVQAGGSLRLSCAATGRTFSIYAMGWYRQAPGKERELVARIRGGGSTNYADSVKGRFTISRDNAKNTVYLQMNSLKPEDTAVYYCATVYWRYGAHSYRYYYWGQGTQVTVSS | high polyreactivity
21 | QVQLVESGGGLVQAGGSLRLSCAATGRTFTYYALGGYRQAPGKQRELVAAISTSGGSTYYADSVKGRFTISRDNAKNTVYLQMNSLKPEDTAVYYCAASPYLRFLYGGFGYWGLGTQVTVSS | high polyreactivity
22 | QVQLVESGGGLVQAGGSLRLSCAATGRTFYQYAKGWSRQAPGKERELVAAISRRGGSTYYADSVKGRFTISRDNAKNTVYLQMNSLKPEDTAVYYCAAQRQYGKFDYWGQGTQVTVSS | high polyreactivity

Row | Sequence | polyreactivity (PSR sort gate)
23 | QVQLVESGGGLVQAGGSLRLSCAATGSIFDYYAMGWYRQAPGKERELVAAISLSGGITYYADSVKGRFTISRDNAKNTVYLQMNSLKPEDTEVYYCAADAIDVLYEYDRYDRRYEYWGQGTQVTVSS | low polyreactivity
24 | QVQLVESGGGLVQAGGSLRLSCAATGSIFGDNAMGWYRQAPGKARELVAAITSSGGSTYYADSVKGRFTISRDNAKNTVYLQMNSLKPEDTAVYYCNADFGYGWYLRYDYWGQGSQVTVSS | high polyreactivity
25 | QVQLVESGGGLVQAGGSLRLSCAATGSIFPPYGMGWYRRAPGKERELVAVITRSGGSTYYADSVKGRFTISRDNAKNTVYLQMNSLKPEDTAVYYCNVDSTTTFVYVVVSVVYEYDYWGQGTQVTVSS | low polyreactivity
26 | QVQLVESGGGLVQAGGSLRLSCAATGSIFSFYAMGWYRQAPGKERELVAGIRWRGGTSTFYADSVKGRFTISRDKAKNTVYLHMNSLKPEDTAVYYCAAKRRTGGNGYWGQGTQVTVSS | high polyreactivity
27 | QVQLVESGGGLVQAGGSLRLSCAATGSIFSSNAMGWYRQAPGKERELVAAIDYSGGRTYYADSVKGRFTISRDYEKNTVYLQMNSLKPEDTAVYYCAKLIPVHSRYDFWGQGTQVTVSS | low polyreactivity
28 | QVQLVESGGGLVQAGGSLRLSCAATGSIFVLYAMGWYRQAPGKERALVAAISKSTGSTYYADSVKGRFTISRDNAKNTVYLQMNSLKPEDTAVYYCAARGRQYRYYDLDYWGQGTQVTVSS | low polyreactivity
29 | QVQLVESGGGLVQAGGSLRLSCAATGSIFYFYTMGWYRQAPGKERELVAAIDWSSGSTYYADSVKGRFTISRDNAKNTVYLQMNSLKPEDTAVYYCNARDYWTGRHDYWGQGTQVTVSS | low polyreactivity
30 | QVQLVESGGGLVQAGGSLRLSCAATGSIIQWNAMGWYRQAPGKERELVAAISWSGTRTYFADSVKGRFTISRDNAKNTVYLQMNSLKPEDTAVYYCAFRGGKPTYRYDYWGQGTQVTVSS | high polyreactivity
31 | QVQLVESGGGLVQAGGSLRLSCAATGSISGYYAMGWYRQAPGKERELVASIRYTGARTYYADSVKGRFTISRDNAKNTVYLQMNSLKPEDTAVYACAADVKRDRVWGGDYWGQGTQVTVSS | low polyreactivity
32 | QVQLVESGGGLVQAGGSLRLSCAATGSLFLPYGMGWYSQAPGKERELVAAFSRGGGSTYYADSVKGRFTISRDNAKNTVYLQMNSLKPEDTAVYYCAVDNLKSRAQSLDGFDYWGQGTQVTVSS | high polyreactivity
33 | QVQLVESGGGLVQAGGSLRLSCAATGSTFRPYAMGWYRQAPGKERELVAAITTGGSTNYADSVKGRFTISRDNAKNTVYLQMNSLKPEDTAVYYCNADYDVLNWGYYDWGYDYWGQGTQVTVSS | low polyreactivity
34 | QVQLVESGGGLVQAGGSLRLSCAATGSTFTAYAMAWYRQAPGKESELVAAIRRIGGDTYYADSVKGRFTISRDNAKNTVYLQMNSLKPEDSAVYYCAAFRWRSPQYWYHSMDHWGQGSQVTVSS | low polyreactivity
35 | QVQLVESGGGLVQAGGSLRLSCAATGSTFTAYAMSWYRQAPGKESELVAAIRRIGGDTYYADSVKGLFTISRDNAKNTVYLQMNSLKPEDTAVYYCAAFRWRSLQYWYHSMDLWGQGSQVTVSS | low polyreactivity
36 | QVQLVESGGGLVQAGGSLRLSCAATGSTFTFNAMGWYRQAPGKEREFVAAITASGGRTYYADSVKGRFTISRDNAKNTVYLQMNSLKPEDTAVYYCAADACLLGPGDFNYWGQGTQVTVSS | low polyreactivity
37 | QVQLVESGGGLVQAGGSLRLSCAATGSTYKYYAMGWYRQAPGKERELVAAITKSGGRTYYSDSVKGRLTISRDNAKNTVYLQMNSLKPEDTAVYYCATVTSHVDDEFDYWGQGTQVTVSS | high polyreactivity
38 | QVQLVESGGGLVQAGGSLRLSCAATGTFRRYAMGWYRQAPGKERELVAAITRNGGSTYYADSVKGRFTISRDNAKNTVYLQMNSLKPEDTAVYYCAAGLFWGGFRQWTDHHFDCDYYWGQGTQVTVSS | high polyreactivity
39 | QVQLVESGGGLVQAGGSLRLSCAATGYTFFFYAMGWYRQAPGKEREFVAASTWRGDSTYYADSVKGRFTISRDNAKNTVYLQMNSLKPEDTAVYYCAADPGFTWSRRMDYWGQGTQVTVSS | low polyreactivity
40 | QVQLVESGGGLVQAGGSLRLSCAATRSTIQANTIGWYRQAPGKERALVAAISIRGANTYYADSVKGRLTISRDNAKNTFYLQMNSLKREDSAVYYCATRVGKYSLSLDYWGQGTQVTVSS | high polyreactivity
41 | QVQLVESGGGLVQAGGSLRLSCAAWSIFYLNAMGWYRQAHGKERELVAAISSAGSTYYADSVKGRFTISRDNAKKTVYLHMNSLKPEDTAVYYCAAYWYDSPGVTEIWYDYWGQGTQVTVSS | low polyreactivity
42 | QVQLVESGGGLVQAGGSLRLSCAAWSIFYLNAMGWYRQAPGKERELVAAISSAGSTYYADSVKGRFTISRDNAKNTVYLQLNSLKPEDTAVYYCAAYWYDSPGVTEIWYDYWGQGTQVTVSS | low polyreactivity
43 | QVQLVESGGGLVQAGGSLRLSCAAYGFTFWRNAMGWYIQAPGKERELVAAISASGGSTYYASSVKGRFTISRDNAKNTVYLQMNSLKPEDTAVYYCNAGEWAISEWGWVVDYDYWGQGTQVTVSS | low polyreactivity
